Data as given in patent US20210253725A1 (BIONTECH, published 2021).

T1: CD27 expressed on the cell surface (HT1080_CD27 cells) (human, UniProt P26842 20-260)
T1 sequence (looked up): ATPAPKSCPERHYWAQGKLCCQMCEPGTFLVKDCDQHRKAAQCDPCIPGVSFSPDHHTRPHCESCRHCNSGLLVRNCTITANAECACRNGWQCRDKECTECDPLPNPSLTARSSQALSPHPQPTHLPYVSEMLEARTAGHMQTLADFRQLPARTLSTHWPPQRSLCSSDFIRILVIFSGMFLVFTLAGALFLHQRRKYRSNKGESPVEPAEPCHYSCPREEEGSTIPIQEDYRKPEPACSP

T2: CD27 protein (His-tagged, Sino Biological Inc. 10039-H08B1) (human, UniProt P26842 20-192)
T2 construct: bought; coated onto ELISA plates; also called human CD27; recombinant protein; not shown: His tag
T2 sequence (looked up): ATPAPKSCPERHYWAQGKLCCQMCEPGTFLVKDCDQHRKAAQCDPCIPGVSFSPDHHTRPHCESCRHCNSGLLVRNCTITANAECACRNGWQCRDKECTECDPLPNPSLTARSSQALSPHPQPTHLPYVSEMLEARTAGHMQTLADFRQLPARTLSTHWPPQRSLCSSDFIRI

B1: P018.S.03.A.E04 (antibody, V domains shown)
VH: QEQLKESGGGLVTPGGTLTLTCTVSGIDLSSYAISWVRQAPGKGLEWIGYIYVGSTTTWYASWVKGRSTISKTSSTTVDLKMTSLTTEDTATYFCARAYDSGYIGNSFYIFHPWGPGTLVTVSS
VL: DIVMTQTPASVSATVGGTVTIKCQASQTISSRLAWYQQKPGQPPKLLIYSASTLASGVSSRFKGSGSGTEFTLTISDLESADGATYYCAGYGGLGITAFGGGTEVVVK
notes: V regions on human Ig constant parts; also called AB27_52
B2: P018.S.09.A.D05 (antibody, V domains shown)
VH: QSLEESGGRLVTPGGSLTLTCTVSGIDLSSYAMDWVRQAPGKGLEWIGVIGAGGSTYYASWANGRFTISKTSTTVDLKISSPTTEDTATYFCARDIGGDYSSRYYFSLWGPGTLVTVSS
VL: DIVMTQTPASVEAAVGGTVTIKCQASQSTSTALAWYQQKPGQRPKLLIYDSSKLASGVPSRFSGSGSGTEFTLTISGVQSDDAASYYCQQGYNINNVAFGGGTEVVVK
notes: V regions on human Ig constant parts; also called AB27_152
B3: P018.S.10.A.E06 (antibody, V domains shown)
VH: QSLEESGGRLVTPGTPLTLTCTVSGIDLSDYAMAWVRQAPGKGLEYIGFINIGGISSVANWAIGRFTISKSSTTVDLKITSPTTEDTATYFCAREGYTTGGGGPYYGMDLWGPGTLVTVSS
VL: DIVMTQTPASVSEPMGGTVTIKCQASQSIHSWLSWYQQKPGQPPKRLIYTASTLASGVPSRFKGSGSGTEYTLTISDLESADAATYYCQRNSYSDFNNYVFGGGTEVVVK
notes: V regions on human Ig constant parts; also called AB27_178
B4: P018.S.09.A.C03 (antibody, V domains shown)
VH: QSVEESGGRLVTPGTPLTLTCTVSGFSLSSYGMIWVRQAPGKGLEWIGWISSNDNKYYARWAKGRFTISKTSTTVDLKMTSLTTEDTATYFCVRNGVYNTGNYFDLWGQGTLVTVSS
VL: AQVLTQTPSSVSAAVGGTVTINCQASQSLYNNKNLAWYQQKPGQPPKFLIYTASSLASGVSSRFKGSGSGTQFTLTISDVQSDDAATYYCQGEFDCDSDDCFAFGGGTEVVVK
notes: V regions on human Ig constant parts; also called AB27_148
B5: P018.S.07.A.C06 (antibody, V domains shown)
VH: QSVEESGGRLVTPGTPLTLTCTVSGFSLNHYHMCWVRQAPGKGLEYIGRIDNSGYIVYASWAKGRFTISKTSTTVDLKITSPTTADTATYFCGKYYSGGSYDLWGQGTLVTVSS
VL: AQVLTQTASSVSAAVGGTVTISCQSSQSVWNNNWLAWYQQKPGQPPKLLIYETSKLASGVPSRFKGSGSGTQFTLTISGVQSDDAATYYCQGEFSCSSDDCNAFGGGTEVVVK
notes: V regions on human Ig constant parts; also called AB27_121
B6: P018.S.05.A.F02 (antibody, V domains shown)
VH: QSVEESGGRLVTPGTPLTLTCTVSGFSLNNYGITWVRQAPGKGLEYIGYINYGGIAYYASWVNGRFTISKTSTTVDLKMTSLTAADTATYFCARGYGYYSAGNLWGQGTLVTVSS
VL: AQVLTQTPSPVSAAVGGTVTINCQASQSVYDNNYLSWYQQKPGQPPKRLIYDASSLASGVPSRFSGSGSGTQFTLTISGVQSDDAATYYCAGEYSCLSDDCIAFGGGTEVVVK
notes: V regions on human Ig constant parts; also called AB27_91
B7: P018.S.04.A.A05 (antibody, V domains shown)
VH: QSLEESGGRLVTPGTPLTLTCTASGFTISSYEMGWVRQAPGEGLEYIGWIASGGSTFYASWAKGRFTISRTSTTVDLTITDLRPSDTGTYFCARGYVEFKLWGPGTLVTVSS
VL: DIVMTQTPASVSESVGGTVTIKCQASQSIGSYLSWYQQKPGQPPKVLIYRASTLESGVPSRFEGSGSGTQFTLTISDLESADAATYYCQGYHSTSGYVAFGGGTELVVK
notes: V regions on human Ig constant parts; also called AB27_65

The binders below were run against T1, CD27 expressed on the cell surface … (assay: cell-based or functional assay).
Note: test concentration or dose not given here.

Row | Binder | IL-8, cross-linked by F(ab')2 fragment [abs. corr.] | IL-8 [abs. corr.]
1 | B1 | 1.19 abs. corr. | 0.2 abs. corr.
2 | B2 | 2.11 abs. corr. | 0.187 abs. corr.
3 | B3 | 2.06 abs. corr. | 0.262 abs. corr.
4 | B4 | 2.25 abs. corr. | 0.464 abs. corr.
5 | B5 | 1.04 abs. corr. | 0.408 abs. corr.
6 | B6 | 1.91 abs. corr. | 0.526 abs. corr.
7 | B7 | 2.24 abs. corr. | 1.67 abs. corr.

The binders below were run against T2, CD27 protein (His-tagged, Sino …) (assay: ELISA on coated His-tagged CD27).

Row | Binder | ELISA [abs. corr.]
8 | B1 | 3.29 abs. corr.
9 | B2 | 3.28 abs. corr.
10 | B3 | 3.28 abs. corr.
11 | B4 | 3.53 abs. corr.
12 | B5 | 3.29 abs. corr.
13 | B6 | 3.29 abs. corr.
14 | B7 | 3.29 abs. corr.

Each binder was assayed against T1, CD27 expressed on the cell surface … (assay: cellular binding assay, HT1080_CD27 cells).

Row | Binder | Cellular binding assay [RFU]
15 | B1 | 356 RFU
16 | B2 | 400 RFU
17 | B3 | 215 RFU
18 | B4 | 319 RFU
19 | B5 | 336 RFU
20 | B6 | 472 RFU
21 | B7 | 206 RFU
